Assay results published in patent publication US20250027068.
Substitutions are numbered along the chain they refer to.

B1: PRT-76 (protein)
chain: MANQEIRYSEVTPYHITSVWTKGVTPPAKFTQGEDVFHAPYVANQGWYDITKTFNGKDDLLCGAATAGNMLHWWFDQNKEEIEAYLKKHPEKQKIMFGDQELLDVRKVINTKDSQTNSALFNYFKDKAFPNLSARRLGVMPDLVLDMFINGYYLNVYKTQTTDVNRTYQTKDRRGGIFDAVFTRGDQSKLLTERHDFKEKTLKEISDLIKQELTEGKALGLSHTYANVRINHVINLWGADFDSNGNLEAIYVTDSDSNASIGMKKYFVGVNSAGKVAISAKEIKEDNIGAQVLGLFTLSTGQDIWNQTN
B2: PRT-70 (protein)
chain: MANQEIRYSEVTPYHVTSVWTKGVTPPANFTQGEDVFHAPYVANQGWYDITKTFNGKDDLLCGAATAGNMLHWWFDQNKEQIKRYLEEHPEKQKINFNGEQMFDVKEAIDTKNHQLDSKLFEYFKEKAFPYLSTKHLGVFPDHVIDMFINGYRLSLTNHGPTPVKEGSKDPRGGIFDAVFTRGDQSKLLTSRHDFKEKNLKEISDLIKKELTEGKALGLSHTYANVRINHVINLWGADFDSNGNLKAIYVTDSDSNASIGMKKYFVGVNSAGKVAISAKEIKEDNIGAQVLGLFTLSTGQDSWNQTN
B3: PRT-5 (protein)
chain: B2 chain with E80D, K83E, E87K, E88K, H114S, K246E, S302I
B4: PRT-71 (protein)
chain: MANQEIRYSEVTPYHVTSVWTKGVTPPANFTQGEDVFHAPYVANQGWYDITKTFNGKDDLLCGAATAGNMLHWWFDQNKEEIEAYLKKHPEKQKIMFGDQELLDVRKVINTKGSQTNSELFNYFRDKAFPGLSARRLGVMPDLVLDMFINGYYLNVYKTQTTDVNRTYQEKDKRGGIFDAVFTRGDQSKLLTSRHDFKEKNLKEISDLIKKELTEGKALGLSHTYANVRINHVINLWGADFDSNGNLKAIYVTDSDSNASIGMKKYFVGVNSAGKVAISAKEIKEDNIGAQVLGLFTLSTGQDIWNQTN
B5: PRT-74 (protein)
chain: B4 chain with Y14S, D59N, G113D, K173R, N201T
B6: PRT-75 (protein)
chain: B4 chain with N29K, E81K, G113D, S114D, Y153R, Y157T, R166E, E170T, E285D
B7: PRT-72 (protein)
chain: B4 chain with N29K, E81Y, S114D, G131Y, Y157T, K173R
B8: PRT-73 (protein)
chain: B4 chain with E81K, G113D, S114D, Y157T, K173R, I304S

Biological target: pooled human IgG

Protein	Enzyme Activity Endpoint Assay (purified): Fab′2 [ng/µL]	Enzyme Activity Endpoint Assay (purified): Fc [ng/µL]	Enzyme Activity Endpoint Assay (purified): IgG [ng/µL]	Enzyme Activity Endpoint Assay (purified): scIgG [ng/µL]	Enzyme Activity Endpoint Assay: Fab′2 [ng/µL]	Enzyme Activity Endpoint Assay: Fc [ng/µL]	Enzyme Activity Endpoint Assay: IgG [ng/µL]	Enzyme Activity Endpoint Assay: scIgG [ng/µL]
B1	20	78	37	38	–	–	–	–
B2	47	124	14	14	–	–	–	–
B3	–	–	–	–	34	117	18	34
B4	53	126	25	0	–	–	–	–
B5	26	73	23	27	–	–	–	–
B6	12	76	8	54	–	–	–	–
B7	41	100	14	8	–	–	–	–
B8	52	105	28	5	–	–	–	–
